Results as given in paper PMC8456781, “Myosin-X and talin modulate integrin activity at filopodia tips” (Cell Reports, 2021).
Where no end group is shown, it is not given here.

T1: His-tagged MYO10^FERM (recombinant MYO10 MyTH4/FERM domain) (UniProt Q9HD67 1504-2058, RED-tris-NTA dye on the His tag (Monolith His-Tag Labeling Kit))
T1 construct: Vector pET151; also called recombinant MYO10^FERM; MYO10 FERM domain; source: E. coli BL-21(DE3), purified (Protino Ni-TED column)
T1 sequence (looked up): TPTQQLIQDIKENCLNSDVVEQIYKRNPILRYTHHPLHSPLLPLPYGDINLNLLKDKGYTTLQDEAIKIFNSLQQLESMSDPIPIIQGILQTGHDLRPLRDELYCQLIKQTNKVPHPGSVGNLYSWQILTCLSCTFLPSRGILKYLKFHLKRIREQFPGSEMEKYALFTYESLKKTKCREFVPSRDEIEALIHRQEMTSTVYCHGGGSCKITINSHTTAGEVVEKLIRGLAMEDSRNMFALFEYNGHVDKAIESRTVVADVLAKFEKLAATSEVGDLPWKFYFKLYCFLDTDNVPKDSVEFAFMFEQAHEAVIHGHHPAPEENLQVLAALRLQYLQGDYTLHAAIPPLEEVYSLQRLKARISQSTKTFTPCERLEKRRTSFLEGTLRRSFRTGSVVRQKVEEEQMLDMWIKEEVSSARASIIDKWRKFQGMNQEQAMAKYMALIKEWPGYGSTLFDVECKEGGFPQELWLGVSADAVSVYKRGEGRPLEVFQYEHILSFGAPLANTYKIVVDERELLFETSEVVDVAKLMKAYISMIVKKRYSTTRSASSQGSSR

T2: ITGA5 tail peptide (Homo sapiens)
T2 chain: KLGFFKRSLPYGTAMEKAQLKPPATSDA

B1: conserved region of the α2-integrin tail, peptide (peptide)
peptide: WKLGFFKRKYEKM
modifications: also: biotinylated, position not given here
notes: Integrin alpha-2 (ITGA2), conserved membrane-proximal region of the cytoplasmic tail; also called ITGA2^WT; ITGA2; source: synthetic peptide (custom, LifeTein)
B2: His-TLN1^FERM (recombinant talin-FERM domain) (domain or fragment)
chain: RPLKIRMLDGTVKTIMVDDSKTVTDMLMTICARIGITNHDEYSLVRELMEEKKDEGTGTLRKDKTLLRDEKKMEKLKQKLHTDDELNWLDHGRTLREQGVEEHETLLLRRKFFYSDQNVDSRDPVQLNLLYVQARDDILNGSHPVSFDKACEFAGFQCQIQFGPHNEQKHKAGFLDLKDFLPKEYVKQKGERKIFQAHKNCGQMSEIEAKVRYVKLARSLKTYGVSFFLVKEKMKGKNKLVPRLLGITKECVMRVDEKTKEVIQEWSLTNIKRWAASPKSFTLDFGDYQDGYYSVQTTEGEQIAQLIAGYIDIILKKK
modifications: RED-tris-NTA dye on the His tag (Monolith His-Tag Labeling Kit)
B3: wild-type β1-integrin tail peptide (peptide)
peptide: KLLMIIHDRREFAKFEKEKMNAKWDTGENPIYKSAVTTVVNPKYEGK
modifications: also: biotinylated, position not given here
notes: Integrin beta-1 (ITGB1) cytoplasmic tail; also called β-tail peptide; integrin β tail; source: synthetic peptide (custom, LifeTein)
B4: His-tagged MYO10^FERM (recombinant MYO10 MyTH4/FERM domain) (domain or fragment)
chain: T1 sequence (looked up)
modifications: RED-tris-NTA dye on the His tag (Monolith His-Tag Labeling Kit)

Tests used:
[1] = target: T1, His-tagged MYO10^FERM (recombinant …); assay: MST; His-tagged recombinant FERM domains labelled with RED-tris-NTA at 20 nM, integrin tail peptides at increasing concentration; three independent experiments pooled; conditions: both partners purified
[2] = target: B4; assay: MST
ITGA5 tail peptide = target: T2, ITGA5 tail peptide; assay: MST
[3] = target: T3, His-TLN1^FERM (recombinant talin-FERM domain) (UniProt P26039 86-403, RED-tris-NTA dye on the His tag (Monolith His-Tag Labeling Kit)); assay: MST; His-tagged recombinant FERM domains labelled with RED-tris-NTA at 20 nM, integrin tail peptides at increasing concentration; three independent experiments pooled; conditions: both partners purified
T3 construct: Talin-1 (TLN1) FERM domain; source: E. coli BL-21(DE3), purified (Protino Ni-TED column)

Binder: B1
binding result [1]: binds | Kd [2]: 15.8 µM

Binder: B2
Kd (ITGA5 tail peptide): 557 µM

Binder: B3
Kd [1]: 25.1 µM | Kd [3]: 4.7 µM

Binder: B4
Kd (ITGA5 tail peptide): 18.3 µM
